The numbers were not newly measured in PMC3000922, which cites them from elsewhere.

A word on the Kd: it is a measure of binding affinity in units of concentration.

The target of the data set is integrin β3 cytoplasmic tail (Homo sapiens) (UniProt P05106). Description: SPR.
Chain of UniProt P05106 (P05106 742-788): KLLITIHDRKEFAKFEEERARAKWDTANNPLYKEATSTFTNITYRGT

For “integrin αIIb cytoplasmic tail (from UniProt P08514)”, the dissociation constant (Kd) is 7 µM.
